Results: the supplement of paper PMC9732359
± gives the uncertainty stated by the source.

assay: protein stability index of a GFP-peptide fusion (yeast GPS) (PSI 1-4); higher = more stable; sorted into four equal gates, so the index is relative within each strain; details: san1∆
Outline: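 Peptides tiling yeast proteins in 17-residue segments were fused downstream of GFP, with Cherry expressed from the same plasmid. As a pooled library in yeast, mid-log cultures grown in leucine-free medium were sorted into four equal gates by GFP/Cherry fluorescence ratio. Gate plasmids were PCR-amplified and Illumina-sequenced, and barcodes linked reads to strains. Each peptide received a protein stability index equal to the sum of each gate's read frequency times its gate number.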

Sequence | protein stability index
FKKDFEVNISSLDAREA [RPC40] | 1.98 ± 0.1

same assay, conditions: ubr1∆

Sequence | protein stability index
EQTVEYMVSRAIRDGVI [RPN3] | 3.45 ± 0.049
ERAAQKLRLDQLVIQQG [ISW2] | 2.42 ± 0.069
ERGFACIPLVGISVPFH [FAS1] | 1.21 ± 0.061
ERHQKQLNEKLVGRLRK [YCS4] | 3 ± 0.065
ERLHELKKLQSDIESAN [SMC1] | 3.2 ± 0.067
ERLKQLTPNEIKELEHL [SWP82] | 2.7 ± 0.054
ERLMISSDAFEVDVCDK [RET1] | 2.21 ± 0.061
ERLTNSLMMNGRNNGKK [RPS5] | 2.62 ± 0.09
ERNAFLSDYEVLKFLTD [RPC17] | 3.05 ± 0.086
ERNNIGEICKNYELEKI [YDL116W/NUP84] | 2.62 ± 0.059
ERQQDELENFLDNFETK [YJL041W/NSP1] | 3.38 ± 0.075
ERSKQLNEKFQELRKKV [SMC2] | 2.81 ± 0.15
ERVIVVTGFAEVGPWGS [FAS2] | 1.47 ± 0.074
ESDNYRLLPNGSNKAQI [YML031W/NDC1] | 2.95 ± 0.035
ESEQELSLHTGFIENCN [MTR3] | 2.93 ± 0.053
ESESERKYDLFQNLELE [SMC2] | 3.3 ± 0.072
ESFAELMTKLNSFKLFK [RPC17] | 2.06 ± 0.081
ESGKVFIGRLPIMLRSK [RPB2] | 2.79 ± 0.058
ESLKNLNESRSQHKKIL [SMC3] | 3.04 ± 0.096
ESLTNSNMFDNSADVDM [YGL100W/SEH1] | 3.36 ± 0.093
ESMAYTAFQTQRTAQDR [YML031W/NDC1] | 2.85 ± 0.16
ESNDRINKIVEILTNQQ [YGR119C/NUP57] | 2.23 ± 0.085
ESNIKMTLEDNNVTSNP [SSN2] | 2.95 ± 0.055
ESRAQNVFGQDNEDSDN [SWI3] | 3.2 ± 0.052
ESRSFSPIPFPPLTYKN [PRP8] | 2.62 ± 0.047
ESYYNWKYNNFLQKFEI [YML103C/NUP188] | 2.72 ± 0.034

Sequence | protein stability index
ETAAMASLALAHVFVGT [RPN1] | 1.41 ± 0.052
ETALEFLEKEKQLTLLR [SMC4] | 2.92 ± 0.058
ETATLIMNELYRMKGGR [SMC3] | 3.26 ± 0.084
ETFQDTFSGALGKQSSS [FAS2] | 3.11 ± 0.055
ETLAYNSLKETLQDFHL [SNF2] | 2.7 ± 0.042
ETLENNIVSVLTAGVNS [RPN11] | 2.57 ± 0.09
ETLVLDEADKMIDLGFE [PRP28] | 3.08 ± 0.056
ETLVLSYFSPINSSNEA [YCG1] | 2.13 ± 0.055
ETQLKVVTRSKEAFEEE [SMC1] | 3.39 ± 0.085
ETRNGKVKNQGADVTNT [YCS4] | 3.18 ± 0.076
ETRRKTTTVLKRYANHT [RET1] | 2.94 ± 0.05
ETVKLPRVSNQSNEDTF [RRI2] | 3.24 ± 0.1
EVAQYLQEIYQTDAIKS [RPN5] | 2.29 ± 0.13
EVLTYVNYLISNTMYSV [YJL039C/NUP192] | 2.5 ± 0.042
EVPEGVTVSIKSRIVKV [RPL9A] | 2.26 ± 0.091
EVYDFTHAVGNNCEDFV [FAS1] | 3.05 ± 0.086
EWRKSAIANTLLYLRLK [PRP8] | 1.37 ± 0.047
EYEELKEKIEKLSKSAT [SMC1] | 3.08 ± 0.073
EYFGGESPVDVQSQVDS [FAS1] | 3.07 ± 0.092
EYKKHFPPNLEKGENPS [UBP6] | 1.93 ± 0.053
EYKSLFVVGVDNVSSQQ [RPP0] | 3.24 ± 0.053
EYKTSSDSLGPDTSNEI [SRB2] | 2.55 ± 0.1
EYKVITSLQGTYEAIEI [YMR129W/POM152] | 3.17 ± 0.13
EYLTLNDFNDLNIDWST [MED2] | 2.51 ± 0.043
EYMVQYIDEMYNHNDGG [RRI1] | 3.19 ± 0.087
EYNKPNSEKFVFLLTTR [ISW2] | 2.43 ± 0.12

Sequence | protein stability index
EYSPEILQIREEIPSKS [RRP6] | 2.88 ± 0.044
EYSYVDSNMDSISSVVS [RPN4] | 3.05 ± 0.043
EYYRIQKQLPQKTRVKL [ESC2] | 2.82 ± 0.039
FANNHFLNSNAVVVGTG [COR1] | 2.04 ± 0.056
FASLRVLPDADVKLLHS [YJL039C/NUP192] | 2.14 ± 0.11
FAWSKPSTGSNLQQQQQ [YGR119C/NUP57] | 2.95 ± 0.045
FDENIARDIISHNFQNA [PCI8] | 2.77 ± 0.039
FDFLMNMPNCDYLTLNK [RPN2] | 1.74 ± 0.039
FDGFLFGSRVMIAKEVK [FAS1] | 2.55 ± 0.074
FDIIEESFKGLQPFWFR [ECM29] | 2.21 ± 0.11
FDNYQRNNFLAENSHTQ [PUP1] | 3.19 ± 0.044
FDTVSNKLFTEPIKLEP [YMR129W/POM152] | 2.91 ± 0.036
FEASCMEGQKLDDPVLN [YJR042W/NUP85] | 1.53 ± 0.061
FEGTPPFSLTYVRTEET [YMR129W/POM152] | 2.6 ± 0.041
FEGWGHEYIRHLALEIG [RPN1] | 2.1 ± 0.083
FEKKLSIIKAKLPLLNE [YML103C/NUP188] | 1.69 ± 0.068
FELFDNKTAHLSIPGKS [SNU114] | 2.1 ± 0.031
FEQDSHLRYQPDGVVVH [SNF6] | 3.09 ± 0.061
FEQTAFSRHAQQQTSTF [SIR4] | 2.01 ± 0.055
FETFLVDVNNKFIALCE [SIN4] | 3.1 ± 0.059
FEYVLYPSKTLKTDGVR [FAS2] | 2.75 ± 0.081
FFLGYMINRLLLCALDR [RPB2] | 1.68 ± 0.12
FFLQRKLRSELGYKDTS [BRR2] | 1.35 ± 0.18
FFNGKALNNAIPGGPKF [PRP8] | 2.94 ± 0.1
FFRNKLKYHDFLRKATA [RPL16B] | 2.23 ± 0.072
FGHLMHYGNEHIRRMVP [RPN1] | 1.96 ± 0.034

Sequence | protein stability index
FGNIMDNLLEMSDHSLD [RRP6] | 3.27 ± 0.05
FGPHVDVNDVLTKYIRS [GRR1] | 3.29 ± 0.04
FGQDVSPMINSTSSGKV [SNM1] | 3.02 ± 0.057
FGSADDTYPYLTGEWST [FAS1] | 1.28 ± 0.072
FGSKPTGATSLFGSSNN [YGL172W/NUP49] | 3.64 ± 0.1
FGYPETIANSIILHFAN [YMR153W/NUP53] | 2.15 ± 0.066
FHGTSTKANDKNESATI [FAS2] | 2.91 ± 0.1
FHSEPDRDENWIHVSCL [LIN1] | 3.13 ± 0.039
FICSIIQTVVISLLALP [YML031W/NDC1] | 2.12 ± 0.11
FIDHHAAIRQPTRYVLI [POP1] | 1.4 ± 0.047
FIDSICKLFDKISFNLR [SRB8] | 1.98 ± 0.053
FIKVVNYNHLLPTRYTL [RPL27A] | 2.18 ± 0.067
FILLDRLRQFNLQPIST [SMC4] | 1.32 ± 0.042
FINNVLSNPSNQNICTS [GRR1] | 2.47 ± 0.037
FITAKDKYKLYPVRIPR [YJR042W/NUP85] | 2.89 ± 0.069
FIYGMSAKDHPKVKEIK [PRP8] | 3.33 ± 0.16
FKDRFKDEPVQNDILQE [FAS2] | 3.46 ± 0.092
FKGHSHIVQDCTLTADG [ASC1] | 1.55 ± 0.065
FKHGPMSLINDAMVTRT [SMD2] | 3.01 ± 0.085
FKIHTAKVKKTGEFDFE [RPT4] | 2.81 ± 0.12
FKIWHGEINKICMESLF [PCI8] | 1.87 ± 0.058
FKKAAPSPISHVAEIRS [RPB2] | 1.81 ± 0.036
FKKDFEVNISSLDAREA [RPC40] | 2.16 ± 0.092
